Data taken from US20250249077A1, “NAMPT FOR WOUND-HEALING AND STIMULATING HAIR GROWTH AND/OR REGROWTH” (Innovative Surgical Regeneration Holdings, LLC, priority 2022, published 2025).
“Also recorded” adds a separate entry of the source.

Assays:
[1] = system: nondiabetic wounds; experiment: Splinted full thickness excisional wound model, nondiabetic (wildtype) mice; assay type: in vivo; details: versus control hydrogel
Protocol: (§1) Diabetic, aged diabetic, and nondiabetic mice were purchased from JAX labs. Bilateral, symmetric full thickness wounds (which recapitulate complete skin tissue loss) were generated on the murine dorsum using a biopsy punch; wounds were treated with the disclosed therapeutic or the control vehicle.
(§2) NAMPT hydrogel was administered on wounds, control hydrogel served as control.

[2] = system: diabetic wounds; experiment: Splinted full thickness excisional wound model, diabetic db/db mice; assay type: in vivo
Protocol: as §1, §2

[3] = system: hair follicles; experiment: Hair growth after intradermal injection of NAMPT in the skin of mice; assay type: in vivo
Description: The mean number of hair follicles per field in the NAMiPT group is 33.93. The mean number of hair follicles per field in the control group is 27.47. The difference between the number of hair follicles per field between the NAMPT group and control group is statistically significant (p-value 0.0097 by unpaired t-test (GraphPad Prism 9).

[4] = system: diabetic wounds; experiment: Single-cell RNA sequencing of NAMPT treated versus control diabetic wounds; assay type: in vivo, mice
Description: Studies including single-cell RNA sequencing performed by the authors have elucidated the mechanism of action of the disclosed novel treatment on complete skin regeneration and prevention of scarring.
We performed gene ontology (GO) analysis on differentially expressed genes between the fibroblast clusters (clusters #0, #5, #10, and #12) to determine whether specific functions could be assigned to the different fibroblast subpopulations (FIG. 2A-E). […] Next, we performed gene ontology analysis on differentially expressed genes between NAMPT treated versus control Cluster #0 fibroblasts.
We utilized the CellChat package to infer cell-cell communication in NAMPT treated diabetic wounds versus control diabetic wounds.
Impaired cellular proliferation in diabetic wounds leads to delayed granulation tissue formation and delayed reepithelialization. We utilized the Tricycle package40 to determine the impact of NAMPT on cell cycle of diabetic wounds.

[5] = pseudotime lineage analysis, relative to control wounds

B1: NAMPT: Nicotinamide phosphoribosyltransferase protein, rate-limiting enzyme of the salvage NAD synthesis pathway; human sequence SEQ ID NO: 1; recombinant (protein, listed as Homo sapiens)
chain: MNPAAEAEFNILLATDSYKVTHYKQYPPNTSKVYSYFECREKKTENSKLRKVKYEETVFYGLQYILNKYLKGKVVTKEKIQEAKDVYKEHFQDDVFNEKGWNYILEKYDGHLPIEIKAVPEGFVIPRGNVLFTVENTDPECYWLTNWIETILVQSWYPITVATNSREQKKILAKYLLETSGNLDGLEYKLHDFGYRGVSSQETAGIGASAHLVNFKGTDTVAGLALIKKYYGTKDPVPGYSVPAAEHSTITAWGKDHEKDAFEHIVTQFSSVPVSVVSDSYDIYNACEKIWGEDLRHLIVSRSTQAPLIIRPDSGNPLDTVLKVLEILGKKFPVTENSKGYKLLPPYLRVIQGDGVDINTLQEIVEGMKQKMWSIENIAFGSGGGLLQKLTRDLLNCSFKCSYVVTNGLGINVFKDPVADPNKRSKKGRLSLHRTPAGNFVTLEEGKGDLEEYGQDLLHTVFKNGKVTKSYSFDEIRKNAQLNIELEAAHH
[1]
  skin regeneration: sufficient to regenerate all tissues of the skin
[2]; diabetic wounds, versus control hydrogel
  skin regeneration: sufficient to regenerate all tissues of the skin
[2]; immunohistochemistry, diabetic wounds vs control, n=3, p=0.0166
  percentage of area staining positive for Keratin15: significantly increases
[2]; immunohistochemistry, diabetic wounds vs control, n=3, p=0.0332
  percentage of area staining positive for b-catenin: significantly increases
[3]; 15 fields at 200× magnification, counted manually, unblinded
  mean number of hair follicles per field: 33.93
[3]; NAMPT group minus control group, unpaired t test
  Difference between means (B − A) ± SEM, hair follicles per field: 6.467 ± 2.329
[3]; NAMPT treated mice skin versus control
  hair follicles, histological analysis versus control: significant increase; also recorded: increased hair follicles
[3]; intradermal injection every 48 hours, compared to control
  hair growth: promoted hair growth visibly by 10 and 14 days
[4]; CellChat analysis
  Wnt-Fzd ligand-receptor interactions: increased diversity, number, and strength
[4]; Cluster #0 fibroblasts, treated vs control
  gene expression for collagens Col1a1, Col1a2, Col3a1, Col5a2, Col6a1: significantly increased
[4]; Cluster #1 undifferentiated epidermal cells, compared to controls
  epidermal stem cell markers Krt5, Krt14, Krt15, Trp63, Itgb1, Itga6: significantly higher
[4]; KEGG pathway analysis
  KEGG oxidative phosphorylation, fatty acid metabolism, TCA cycle, mTOR signaling and pyruvate metabolism pathways: significantly enhances
[4]; Tricycle cell cycle analysis, compared to controls
  proportion of cells in the S phase, G2/M phase, and M phase: increases
[4]; epidermal stem cell populations
  Hgf signaling: promoted
[4]; pseudotime lineage analysis, relative to control treated wounds
  Krt79+ and Krt6a/Krt6b+ cells: enriched
[4]; [5]
  Krt77+ cells: increased
  Pparg+/Fasn+ cells: enriched
[4]; treated diabetic wounds
  immune pathways (MHC-II, CD6, ALCAM, VISTA, MHC-I, CD80): upregulated
  pro-inflammatory pathways, including TNF and IL1: activation
